Results taken from the MegaScale stability set (Tsuboyama et al. 2023).

B1: EHEE_rd4_0086 (parent)
chain: EIHIRTNGEEQARKVYKMLAKRNYDVKIEQHNGQWVVTAS

Variants of: B1
Assay: folding stability dG (cDNA display proteolysis); higher = more stable
Conditions: PBS, room temperature

Variant | folding stability dG
K17Y | 1.99 kcal/mol
K17F | 1.86 kcal/mol
K17G | 1.33 kcal/mol
K17T | 1.91 kcal/mol
K17D | 2.06 kcal/mol
K17R | 2.02 kcal/mol
K17V | 1.91 kcal/mol
K17N | 2.07 kcal/mol
K17W | 2.11 kcal/mol
K17Q | 2.1 kcal/mol
K17C | 3.19 kcal/mol
K17P | -0.583 kcal/mol
K17H | 1.83 kcal/mol
K17L | 2.08 kcal/mol
K17S | 1.77 kcal/mol
K17M | 2.15 kcal/mol
K17I | 2.03 kcal/mol
K17A | 2.25 kcal/mol
K17E | 2.37 kcal/mol
R13A | 1.03 kcal/mol
R13M | 1.79 kcal/mol
R13C | 2.74 kcal/mol
R13T | 1.18 kcal/mol
R13W | 2.33 kcal/mol

Variant | folding stability dG
R13H | 1.32 kcal/mol
R13V | 1.27 kcal/mol
R13I | 1.67 kcal/mol
R13N | 1.36 kcal/mol
R13K | 1.92 kcal/mol
R13L | 1.89 kcal/mol
R13D | 0.502 kcal/mol
R13Q | 1.47 kcal/mol
R13G | 0.376 kcal/mol
R13F | 1.5 kcal/mol
R13E | 1.04 kcal/mol
R13S | 0.759 kcal/mol
R13Y | 1.85 kcal/mol
N7I | 1.69 kcal/mol
N7P | 1.32 kcal/mol
N7W | 2.08 kcal/mol
N7L | 1.81 kcal/mol
N7V | 1.66 kcal/mol
N7K | 1.77 kcal/mol
N7R | 2.06 kcal/mol
N7S | 1.95 kcal/mol
N7Q | 1.85 kcal/mol
N7M | 1.69 kcal/mol
N7T | 1.99 kcal/mol

Variant | folding stability dG
N7Y | 1.99 kcal/mol
V15E | -0.159 kcal/mol
V15I | 2.49 kcal/mol
V15N | -0.279 kcal/mol
V15S | -0.033 kcal/mol
V15Q | 0.153 kcal/mol
V15C | 2.6 kcal/mol
V15K | 0.551 kcal/mol
V15Y | 1.97 kcal/mol
V15M | 1.62 kcal/mol
V15H | 0.525 kcal/mol
V15R | 0.424 kcal/mol
V15T | 0.624 kcal/mol
V15D | -0.861 kcal/mol
V15A | 1.12 kcal/mol
V15L | 2.35 kcal/mol
V15F | 1.93 kcal/mol
V15W | 2.43 kcal/mol
A12V | -0.114 kcal/mol
A12W | 0.477 kcal/mol
A12Y | -0.25 kcal/mol
A12M | 0.486 kcal/mol
A12R | -0.218 kcal/mol
A12C | 2.51 kcal/mol

Variant | folding stability dG
A12S | 0.335 kcal/mol
A12K | -0.265 kcal/mol
A12T | 0.108 kcal/mol
A12F | -0.019 kcal/mol
A12L | 0.213 kcal/mol
A12G | 0.134 kcal/mol
A12I | 0.115 kcal/mol
A12Q | -0.947 kcal/mol
E10M | 1.89 kcal/mol
E10H | 1.58 kcal/mol
E10G | 1.64 kcal/mol
E10S | 1.93 kcal/mol
E10N | 1.72 kcal/mol
E10L | 1.98 kcal/mol
E10K | 2.15 kcal/mol
E10I | 1.84 kcal/mol
E10V | 1.81 kcal/mol
E10T | 1.78 kcal/mol
E10R | 2.17 kcal/mol
E10Y | 1.81 kcal/mol
E10W | 2.06 kcal/mol
E10P | 1.37 kcal/mol
E10Q | 1.81 kcal/mol
E10A | 2.22 kcal/mol

Variant | folding stability dG
E10F | 1.73 kcal/mol
E10D | 1.74 kcal/mol
M18G | 0.727 kcal/mol
M18W | 2.61 kcal/mol
M18V | 1.48 kcal/mol
M18E | 1.67 kcal/mol
M18L | 1.82 kcal/mol
M18K | 1.37 kcal/mol
M18S | 1.35 kcal/mol
M18N | 1.14 kcal/mol
M18H | 1.54 kcal/mol
M18D | 1.08 kcal/mol
M18F | 2.25 kcal/mol
M18Q | 1.5 kcal/mol
M18T | 1.12 kcal/mol
M18Y | 2.37 kcal/mol
M18I | 1.81 kcal/mol
M18R | 1.25 kcal/mol
M18A | 1.84 kcal/mol
E9V | 1.76 kcal/mol
E9W | 2.41 kcal/mol
E9D | 0.638 kcal/mol
E9H | 1.55 kcal/mol
E9F | 2.33 kcal/mol

Variant | folding stability dG
E9S | 1.14 kcal/mol
E9K | 1.69 kcal/mol
E9P | 1.92 kcal/mol
E9N | 0.702 kcal/mol
E9A | 1.53 kcal/mol
E9I | 2.26 kcal/mol
E9M | 1.75 kcal/mol
E9T | 0.873 kcal/mol
E9L | 2.44 kcal/mol
E9Y | 2.52 kcal/mol
E9R | 1.77 kcal/mol
E9G | 0.745 kcal/mol
E9Q | 1.52 kcal/mol
A20D | 0.486 kcal/mol
A20Q | 2.16 kcal/mol
A20L | 2.51 kcal/mol
A20H | 1.36 kcal/mol
A20T | 1.75 kcal/mol
A20F | 1.58 kcal/mol
A20Y | 1.55 kcal/mol
A20N | 0.982 kcal/mol
A20V | 2.18 kcal/mol
A20R | 2.14 kcal/mol
A20K | 2.43 kcal/mol

Variant | folding stability dG
A20W | 1.46 kcal/mol
A20I | 2.17 kcal/mol
A20M | 2.21 kcal/mol
A20G | 0.826 kcal/mol
A20E | 1.52 kcal/mol
A20S | 1.78 kcal/mol
Y24A | 1.08 kcal/mol
Y24P | 0.856 kcal/mol
Y24M | 1.71 kcal/mol
Y24E | 0.458 kcal/mol
Y24W | 2 kcal/mol
Y24V | 1.29 kcal/mol
Y24S | 0.914 kcal/mol
Y24Q | 0.902 kcal/mol
Y24H | 1.18 kcal/mol
Y24F | 1.93 kcal/mol
Y24I | 1.42 kcal/mol
Y24R | 1.3 kcal/mol
Y24D | 0.514 kcal/mol
Y24G | 0.656 kcal/mol
Y24N | 0.737 kcal/mol
Y24L | 1.69 kcal/mol
Y24K | 1.25 kcal/mol
